According to the DeepSol protein solubility set:

Experiment: soluble on expression in E. coli; label from the status in PepcDB or PDB records

| Sequence | soluble on expression in E. coli |
| --- | --- |
| MFQALLTKLKNNAALGAAANNLNKFRSSNLGNQRRSVSVAVTSTSPKSEKPVAREHMIYDETHFVMQKSLGKLIEEKINPNVAKWEQDGRYPAHLVFKMLGDHGVFGVNKPEAFGGTGTDIAMATAIAEQMGAINCGSIPMSVMVQTDMSTPALAQFGSDALRERFLRPSITGDLVSSLAVSEPHAGSDVSAVHTHARRQGSDLIINGSKMWITNGGQADWACVLVNTSNTSNVHKNKSLVCVPLDAVGVHRSTPLDKLGMRSSDTVQLFFEDVRVPSSYIIGEEGRGFGYQMKQFNDERLVTVAVGLLPLQKCIDETIEYARDRLLFGKTLLDQQYIQFQLAELEAELEATRALLYRTVLARSRGDDVSMLTAMAKLKIGRLARAITDQCLQVWGGAGYLNENGISRAFRDFRLFSIGAGCDEVMMRIIHKAQSRRQLKKA | not soluble |
| MGSDKIHHHHHHMNLRQLKYFLATAELGQVSRAASELSISQSSVTTAIRELEQSMGTTLFNRTAHGMDLTPTGRDLMSAARDVMEKVQIAQDIGQNHSDVTGTINIAATYTVCGYFLPYHLDRLSHRFPNLTINISELNRESIEEGLISNRFDVAVILTSNTSNPELATQTLMRSHRRLWVPQNHPLAGREFASFEDVAAQDYIMLTVDEAANTSMKYWGPTGLMPRVRMRTSSTEAVRSMVANGLGVTILSDMVYRPWSLEGRRISTVVMDREIPSMDVGLAWRRNQEMPNAARHFVDYFRNAYLSPQMAHTAWRG | not soluble |
| MGSDKIHHHHHHMPLLDIRNLTIELDTPHGRVKALEKVSLMLHAGEIHGLVGESGSGRSLLARAVLGIPGPNWTITADRMMWDGRNLMEMSDVERRNLMGKDMAMIFQDPSGSLDPVITIGAQLIEAMPADKNVPFWRRGRERRLTAQKWLHKVGIKDPKRVMASYPWETSEGECQKVMIAMALANQPRLLIADEPTNSMEPSTQAQIFRLLAQLNQLQGVTIMMISHELETLADWCNNLTVLYCGQVMESGPIDELIREPLHPYTKALMDHLPDYRGNLPHKSLMPVLPGSAPALQHLPIGCRLGPRCPEARRECVHQPQLQHQKDRYYACHFPYRTETNNDDTAA | not soluble |
| MDAQSYMPVPPGVGMEENFFSLDDILLSHERLPCRTESAFPRLGFLEKSSDSRDIPEGTKMEMPLWLAKGLYERKRRVLSVELPKVYREGWRTVFGADPTVVDLYKMGPYYYGLGSQMLHFESPENPEIANTILQTFIGRFRRTMDSSQNAYNEDTSALVERLDYLERSLFKAGQSGLNNFQLWEKGRSSHLTASSLVINYRKRKMTDLQA | not soluble |
| MILVTGFEPFGSLEHNPSQALLDLLPSEVDGKPLRKAVLPVDAEALGEALEDLHREGPKAVLHLGLAEDRPVLTLERLAVNLLDFPRPDNRGRVLEDLPIVPGGPLALPARFPVKPVLARWREAGIPGRPSLSAGSYLCNQAFYLSLYRLPEEVPVGFLHLPPDETLALKRPRPYVPLEVQARAVRLALEHL | soluble |
| DAFTDQKIRQRYADLPGELHIIELEKDKNGLGLSLAGNKDRSRMSIFVVGINPEGPAAADGRMRIGDELLEINNQILYGRSHQNASAIIKTAPSKVKLVFIRNEDAVNQMA | soluble |
| MAHHHHHHMEIADRPLSEIIKEQKIDKELRRRHRGNQSGGNSDKKSVNRQGSSSQRQRNNNNNNTSGSRSRGSGNRSGGNKPESGRRRFRTDGGRRRGGNAVSAGSGSFGASRRRLADRADRRRRGALGGDNGNDGFGRGRDRDNNDRRGVKSAPRRRRISGAERNERNRNRDRRSALSRSRFDRDY | soluble |
| MSIQKNTSTTSSSTLLDLIVIGGGINGAGIAADAAGRGLSVGLYEANDFASATSSASSKLIHGGLRYLEHYEFRLVSEALAEREVILRKAPHVALPMRFRLPHRPFLRPAWMIRCGLFLYDNLGKRTTLPGSKTVNLAKSGLLKPEMKTGFEYSDCWVDDARLVLLNVMAARENHAEVRNYCRVEKAHRENGVWHVTIHDVTTDQRFERKAKALVNAAGPWVKQFFDEGLEQTSPRNIRLIKGSHIVVPRIHNEPQAYILQNKDNRIVFMIPYLDKFSIIGTTDVEYKGDPREVAISDDEVDYLIDIVNQHFVHQLTREDVVWTYSGVRPLCDDESDSPQAITRDYTLELDAEYDQAPLLSVFGGKLTTYRKLGEAAMKKLEPYLPQMGGNWTANQTLPGGNFSCTREQLAKQIHAKYSWAPQALILRYVTQFGTQTWDLMEGASSEADLGQAFSEQAGGVYQREIDYLMNHEMALTDEDILWRRTKLGLYMNDEEKQALADYLKEKLQQKVVNLSQVSLEHHHHHH | soluble |
| MGSDKIHHHHHHMYPGCRLCINIGDQFARSVYYGRYKVIPIRTEIIKFCETMGFDYMGAIIWQKVTTTNTTGGATIMGSFPYPRNGILKLDYEFILFFKKQGNAPKPTREQKERSVISKEDWNTYFSGHWYFSGVKQEGHIAMFPEELPARLIKMFAFVGDTVLDPFLGSGTTSMAARNLERNSIGYEINQDFIPAIRQKLNVCQMDIHGAEYSFLEDSATIDCEQEIEKLPYVFKDPHKLDKKIDPKKLLFGSKIDRNSADREEYFSVKEVISPEVIRLSNGLLIRLMGVRENTAMNGLAVNFITEKTKGQKIFLKFDLQKHDSQNRLLCYVYLKNKTFLNAHLIKEGLAIVDRSVDFRYKDKFMKLEAQCG | not soluble |
| MQMMEQFYPKVSIVIPVYNGSDYMREAIDSALGQTYGNIEVIVVNDGSSDGGLTHEIALSYGGNIRYFAKENGGVASALNFAIRMMDGEYFSWLSHDDIYYPNKIETQIGYLAEHDRNAILYSDFELIDCLSKVIKPVNAGEIPPEQFLYNLITIGHLNGCTLLVPKRCFEETGFFDESLRSTQDYALWFTFAQKYRFEQIRKVLVKYRTHSNQGSYVIPTHSQEVNDLHIWFLEEASERGLLPIPDEGASRFFLEVAGIYKKRGIYRAADYSCSMALRHMRDEGGLALLRELPRVAYLKYYFRKKQFKSYLRELRRSTVRRSLLEHHHHHH | not soluble |
| MGSDKIHHHHHHMVKNDESQIFTKMRLTLVIPSLYSGGAERVLSIIANYWASKGWKVTLLTFCGNQPPFYDLDSRISYIPLHIARDSSNLIAAVKNNLYRIFKLRLAITASNPDIVISFMSEANVTTLLATRGLNVPVLVSERNNPKIRLTKSSIWVKLRQLTYPFAQRVIVQTQRALNYFPSSLKNRICVIPNPVLLPPNKPCKPQELFNKLPGQKLLIAVGRLESQKGFDLLLQAFANLKDDFSEWQLVILGEGILHLDLTELCHQLQLNGRVYFLGRVKNIYEFLQEADIYVMSSRFEGFPNALCEAMASGLPVISTDCPNGPREIIRDGIDGLLVPNEDVLALTSAIKLLMSDEEKRKNLATNASEIAERFSIDKIMEMWEFVVKDVVES | not soluble |
| MSLQNLSPTQREILLALTDLYNRQKRMIKSKEVADIIGKDEGTVRNIILSLKVLGLVESKPGPNGGYMPTLKAYEIINNPTLTPILDKLNLYKGMIETDIKVENIEIIDITNPSANRVLLKVEGDLRKLKIGDAVRLGPTPYSRLVIEGLILHLDENSKEIVVDVKRMISIPKEKVKNLISKKLIALKPETSLREASMIFYKEAIRGAPVINQDEKVVGILTTADIIKAFFEGNYTAKVSDYMKTNVISINENEDLLDAIRKMIIYNVGRLLVLDSNNKAVGIVTRTDILRSIAGLEGLWTTEGHHHHHH | soluble |
| PQSAVLHYSGSYGIPATMTFERSGNAYKIVSTIKVPLYNIRFESGGTVVGNTLHPTYYRDIRRGKLYAEAKFADGSVTYGKAGESKTEQSPKAMDLFTLAWQLAANDAKLPPGLKITNGKKLYSVGGLNKAGTGKYSIGGVETEVVKYRVRRGDDAV | not soluble |
| MNTRTWFVLLCLALPLVSLQAQPHPQTEQTSPALSEHTEMDHTEMNHTEMDHTEMDHTEMDHTEMDHTQMDHTQMDHTQMDHAIHGATTQFAGDGSLPPPSAAALAAAFPPLRHRAAHAPPLVSLVRIDRLETWNADPGRGHAWATQAWIGSDIQRLWLRSQGECYGGRCQSVAVEMLYGHDISPWWDALIGARRDVQPDGRTWAALGVQGVAPYKFESAAFLYLSGAAMRLMVETKYDLLLSQRLILQPSLQATAGLTRDRDLGAGPQTLQVGIRMRYQITRRVAPYVGWEREYGYGESGRQARARGTSDHEKRWVAGIRCWFLEHHHHHH | soluble |
